# Laboratory results reported in patent publication US20150148405A1, “Expression Construct for a Lin28-Resistant Let-7 Precursor MicroRNA” (THE JOHNS HOPKINS UNIVERSITY, priority 2012, published 2015).
# B1: BDNF: brain-derived neurotrophic factor, a neurotrophin used to stimulate hippocampal neurons (protein, UniProt P23560 19-247, looked up)
# Neurotrophic factor BDNF …: APMKEANIRGQGGLAYPGVRTHGTLESVNGPKAGSRGLTSLADTFEHVIEELLDEDQKVRPNEENNKDADLYTSRVMLSSQVPLEPPLLFLLEEYKNYLDAANMSMRVRRHSDPARRGELSVCDSISEWVTAADKKTAVDMSGGTVTVLEKVPVSKGQLKQYFYETKCNPMGYTKEGCRGIDKRHWNSQCRTTQSYVRALTMDSKKRIGWRFIRIDTSCVCTLTIKRGR
# Legend:
# Format in all cases: cell-based, mouse
# [1] = test system: Let-7 family, miR-107, miR-143; test: Individual TaqMan RT-qPCR of mature miRNA levels; conditions: BDNF vs mock, normalized to 18s rRNA
# Description: For individual microRNA abundance assays (Applied Biosystems), 100 ng of total isolated RNA was prepared for reverse transcription with stem-looped primers specific for individual mature miRNAs in a final volume of 15 μL according to manufacturer's protocol; 4° C. for 5 min, 16° C. for 30 min, 42° C. for 30 min, 85° C. for 5 min. and subjected to TaqMan MicroRNA Assays (Applied Biosystems) for Let-7a (assay ID: 000377), Let-7b (002619), Let-7e (002406), Let-7f1 (000382), miR-107 (000443) and miR-143 ([…]). RT-qPCR was performed using a Stratagene Mx3000P machine and software with quantities derived by standard-curve quantitation method. The abundance of non-coding 18s rRNA in each sample was used as an internal control to normalize all miRNA species.
# miR-17 = test: Northern blot of control miRNA miR-17; conditions: BDNF-treated (30 min) neurons
# Description: Northern blots were carried out as described (Hwang et al., 2007), using the following LNA probes from Exiqon: Let-7a (5′ […] 3′; SEQ ID NO: 1), pre-Let-7a (5′ GTGGGTGTGACCCTA 3′; SEQ ID NO: 2), miR-17 (5′ […] 3′; SEQ ID NO: 3) and quantified by phosphoimaging.
# [2] = test system: Let-7 miRNA binding sites; test: Let-7 luciferase reporter assay; conditions: BDNF 4 hr, transcription blockade; control reporters unchanged
# Text: Let-7 luciferase reporters (gift of G. Hannon) harbor a wildtype or a mutant Let-7 miRNA binding site. The Let-7 miRNA binding sites are derived from a short 3′UTR segment of C. elegans Lin41 mRNA containing two adjacent proven Let-7 miRNA biding sites and are cloned into 3′UTR of firefly luciferase in a pcDNA backbone. Mutations in seed regions of both Let-7 binding sites were made for a negative control reporter, which was documented not regulated by endogenous Let-7 miRNAs. Co-transfection of the pCSK-lacZ vector, which constitutively expresses β-galactosidase and is not regulated by shRNA, served to normalize transfection efficiency and extract recovery for each sample in all reporter assays. The DNA amounts used for each well (24 well plate) were 15 ng of any luciferase reporter, 85 ng of β-gal (CSK-LacZ), and/or 75-300 ng of CXCR4 shRNA. Each reporter experiment included extracts from cells transfected with pcDNA3.1 alone as a reference control. […] Cell lysates were collected in 1×lysis buffer (reporter lysis buffer, Promega), and luciferase (Promega) and chemiluminescent β-gal (Roche) reporter assays carried out according to manufacturer instructions using a plate-reading luminometer (Perkin Elmer). […] When required, fold change was calculated by dividing normalized stimulated samples by normalized unstimulated samples.
# cultured neurons = test: 35S-labelling total protein synthesis; conditions: mock or BDNF 100 ng/mL 2 hours, Actinomycin-D
# Description: Cultured neurons were pre-incubated in media containing reduced-serum and Actinomycin-D as previously described, followed by washing and incubation for 10 min with methionine- and cysteine-free DMEM (Mediatech, Inc.), and ^35S labeling in the same DMEM with the addition of ^355-methionine/cysteine (^35S Met/Cys EasyTag Mix, Perkin Elmer) to a final concentration of […]. Mock- or BDNF stimulation was for 2 hours. Cells were washed and lysed with lysis buffer (see immunoblotting). Lysates were centrifuged and collected supernatants subjected to Bradford assay. To assess newly synthesized proteins, 200-500 μg of lysates proteins were precipitated with 10% trichloroacetic acid (TCA) for 1 hour on ice in the presence of 0.5% deoxycholate (DOC) to remove interfering phenol red. After centrifugation, protein pellets were washed with ice-cold 95% ethanol, solubilized in denaturing buffer ([…] Tris pH 8.3, 5 mM EDTA, 0.05% SDS, 6M urea), and subjected to liquid scintillation counting (Econofluor, New England Nuclear, Inc.). ^35S Disintegration per minute (DPM) was used to quantitate protein synthesis after subtraction of background readings.
molecule,measurement,setting,value
B1,"abundance of Let-7 family members, miR-107 and miR-143",[1],significant and reproducible BDNF-induced decreases in abundance
same,mature miR-17 level,miR-17,modestly increased
same,luciferase reporter containing Let-7 binding sites,[2],significantly induced
same,total protein synthesis (35S incorporation),cultured neurons,modest enhancement of total translation
